According to paper PMC2770428 (2010):
Several values for one entry are separate records, joined by “and”; a condition that tells them apart may be missing. Equal values may be shown once.

T1: C4b (on zymosan, average) C4b (Homo sapiens, UniProt P0C0L5)
T1 chain 1: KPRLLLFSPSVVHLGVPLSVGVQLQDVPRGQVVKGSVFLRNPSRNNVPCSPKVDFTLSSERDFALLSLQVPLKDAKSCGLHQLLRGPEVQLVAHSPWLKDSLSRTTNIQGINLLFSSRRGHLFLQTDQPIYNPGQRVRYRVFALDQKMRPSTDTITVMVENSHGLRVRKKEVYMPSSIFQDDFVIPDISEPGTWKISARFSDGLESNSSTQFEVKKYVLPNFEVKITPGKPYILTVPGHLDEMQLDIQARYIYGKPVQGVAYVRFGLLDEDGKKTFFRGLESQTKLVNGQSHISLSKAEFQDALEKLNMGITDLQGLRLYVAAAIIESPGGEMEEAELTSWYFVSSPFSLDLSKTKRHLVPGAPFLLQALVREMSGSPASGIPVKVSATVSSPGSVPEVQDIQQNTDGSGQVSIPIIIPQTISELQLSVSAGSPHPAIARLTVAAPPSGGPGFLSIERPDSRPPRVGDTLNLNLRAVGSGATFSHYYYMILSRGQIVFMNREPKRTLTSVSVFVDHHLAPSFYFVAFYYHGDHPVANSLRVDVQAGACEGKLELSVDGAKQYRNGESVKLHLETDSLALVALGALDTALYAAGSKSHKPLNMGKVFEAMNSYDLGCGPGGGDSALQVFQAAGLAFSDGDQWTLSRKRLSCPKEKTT
T1 chain 2: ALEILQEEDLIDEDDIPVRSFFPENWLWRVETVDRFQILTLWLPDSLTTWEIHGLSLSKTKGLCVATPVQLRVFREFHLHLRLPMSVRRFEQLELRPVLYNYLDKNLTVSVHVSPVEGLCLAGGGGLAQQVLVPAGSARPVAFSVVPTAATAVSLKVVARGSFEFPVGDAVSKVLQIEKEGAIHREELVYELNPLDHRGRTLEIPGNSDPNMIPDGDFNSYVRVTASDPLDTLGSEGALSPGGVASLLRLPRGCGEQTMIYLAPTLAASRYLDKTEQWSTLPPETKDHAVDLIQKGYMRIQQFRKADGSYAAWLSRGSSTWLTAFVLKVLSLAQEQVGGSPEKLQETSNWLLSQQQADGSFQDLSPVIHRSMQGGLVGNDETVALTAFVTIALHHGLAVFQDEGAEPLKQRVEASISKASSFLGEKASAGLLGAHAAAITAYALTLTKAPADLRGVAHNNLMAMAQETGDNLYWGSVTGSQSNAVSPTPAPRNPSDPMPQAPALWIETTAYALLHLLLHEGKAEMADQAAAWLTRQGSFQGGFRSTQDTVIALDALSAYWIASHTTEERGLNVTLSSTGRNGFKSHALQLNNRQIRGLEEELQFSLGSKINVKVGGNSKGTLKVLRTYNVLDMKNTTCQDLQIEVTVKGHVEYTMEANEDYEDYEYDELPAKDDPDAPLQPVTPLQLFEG
T1 chain 3: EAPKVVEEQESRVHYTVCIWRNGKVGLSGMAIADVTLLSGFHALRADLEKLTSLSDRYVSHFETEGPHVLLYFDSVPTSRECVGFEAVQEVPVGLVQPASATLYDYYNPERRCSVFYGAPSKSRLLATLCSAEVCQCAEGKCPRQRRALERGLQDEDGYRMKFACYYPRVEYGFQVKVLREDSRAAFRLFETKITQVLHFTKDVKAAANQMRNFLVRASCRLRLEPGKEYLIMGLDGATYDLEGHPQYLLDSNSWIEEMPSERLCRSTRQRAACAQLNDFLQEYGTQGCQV

B1: C4b-binding protein (C4BP) (protein)
chain 1: NCGPPPTLSFAAPMDITLTETRFKTGTTLKYTCLPGYVRSHSTQTLTCNSDGEWVYNTFCIYKRCRHPGELRNGQVEIKTDLSFGSQIEFSCSEGFFLIGSTTSRCEVQDRGVGWSHPLPQCEIVKCKPPPDIRNGRHSGEENFYAYGFSVTYSCDPRFSLLGHASISCTVENETIGVWRPSPPTCEKITCRKPDVSHGEMVSGFGPIYNYKDTIVFKCQKGFVLRGSSVIHCDADSKWNPSPPACEPNSCINLPDIPHASWETYPRPTKEDVYVVGTVLRYRCHPGYKPTTDEPTTVICQKNLRWTPYQGCEALCCPEPKLNNGEITQHRKSRPANHCVYFYGDEISFSCHETSRFSAICQGDGTWSPRTPSCGDICNFPPKIAHGHYKQSSSYSFFKEEIIYECDKGYILVGQAKLSCSYSHWSAPAPQCKALCRKPELVNGRLSVDKDQYVEPENVTIQCDSGYGVVGPQSITCSGNRTWYPEVPKCEWETPEGCEQVLTGKRLMQCLPNPEDVKMALEVYKLSLEIEQLELQRDSARQSTLDKEL
chain 2: SDAEHCPELPPVDNSIFVAKEVEGQILGTYVCIKGYHLVGKKTLFCNASKEWDNTTTECRLGHCPDPVLVNGEFSSSGPVNVSDKITFMCNDHYILKGSNRSQCLEDHTWAPPFPICKSRDCDPPGNPVHGYFEGNNFTLGSTISYYCEDRYYLVGVQEQQCVDGEWSSALPVCKLIQEAPKPECEKALLAFQESKNLCEAMENFMQQLKESGMTMEELKYSLELKKAELKAKLL

Assays:
[1] = molecular target: C4b (soluble) (Homo sapiens) (UniProt P0C0L4); details: cited from earlier work
[2] = molecular target: C4b (surface-bound) (Homo sapiens) (UniProt P0C0L4); details: cited from earlier work
[3] = molecular target: C3bC4b complex (on EMan, average) C3b+C4b (Homo sapiens, UniProt P01024); assay: 125I-C4BP equilibrium binding
[4] = molecular target: C3bC4b complex (on zymosan, average) C3b+C4b (Homo sapiens, UniProt P01024); assay: 125I-C4BP equilibrium binding
[5] = molecular target: C3bC4b complex (on zymosan, 54,000 C4b/Zym) C3b+C4b (Homo sapiens, UniProt P01024); assay: 125I-C4BP equilibrium binding
[6] = molecular target: T1, C4b (on zymosan, average) C4b; assay: 125I-C4BP equilibrium binding

Chain of C3bC4b complex (on EMan, average) C3b+C4b (P01024 23-1663, one chain of several): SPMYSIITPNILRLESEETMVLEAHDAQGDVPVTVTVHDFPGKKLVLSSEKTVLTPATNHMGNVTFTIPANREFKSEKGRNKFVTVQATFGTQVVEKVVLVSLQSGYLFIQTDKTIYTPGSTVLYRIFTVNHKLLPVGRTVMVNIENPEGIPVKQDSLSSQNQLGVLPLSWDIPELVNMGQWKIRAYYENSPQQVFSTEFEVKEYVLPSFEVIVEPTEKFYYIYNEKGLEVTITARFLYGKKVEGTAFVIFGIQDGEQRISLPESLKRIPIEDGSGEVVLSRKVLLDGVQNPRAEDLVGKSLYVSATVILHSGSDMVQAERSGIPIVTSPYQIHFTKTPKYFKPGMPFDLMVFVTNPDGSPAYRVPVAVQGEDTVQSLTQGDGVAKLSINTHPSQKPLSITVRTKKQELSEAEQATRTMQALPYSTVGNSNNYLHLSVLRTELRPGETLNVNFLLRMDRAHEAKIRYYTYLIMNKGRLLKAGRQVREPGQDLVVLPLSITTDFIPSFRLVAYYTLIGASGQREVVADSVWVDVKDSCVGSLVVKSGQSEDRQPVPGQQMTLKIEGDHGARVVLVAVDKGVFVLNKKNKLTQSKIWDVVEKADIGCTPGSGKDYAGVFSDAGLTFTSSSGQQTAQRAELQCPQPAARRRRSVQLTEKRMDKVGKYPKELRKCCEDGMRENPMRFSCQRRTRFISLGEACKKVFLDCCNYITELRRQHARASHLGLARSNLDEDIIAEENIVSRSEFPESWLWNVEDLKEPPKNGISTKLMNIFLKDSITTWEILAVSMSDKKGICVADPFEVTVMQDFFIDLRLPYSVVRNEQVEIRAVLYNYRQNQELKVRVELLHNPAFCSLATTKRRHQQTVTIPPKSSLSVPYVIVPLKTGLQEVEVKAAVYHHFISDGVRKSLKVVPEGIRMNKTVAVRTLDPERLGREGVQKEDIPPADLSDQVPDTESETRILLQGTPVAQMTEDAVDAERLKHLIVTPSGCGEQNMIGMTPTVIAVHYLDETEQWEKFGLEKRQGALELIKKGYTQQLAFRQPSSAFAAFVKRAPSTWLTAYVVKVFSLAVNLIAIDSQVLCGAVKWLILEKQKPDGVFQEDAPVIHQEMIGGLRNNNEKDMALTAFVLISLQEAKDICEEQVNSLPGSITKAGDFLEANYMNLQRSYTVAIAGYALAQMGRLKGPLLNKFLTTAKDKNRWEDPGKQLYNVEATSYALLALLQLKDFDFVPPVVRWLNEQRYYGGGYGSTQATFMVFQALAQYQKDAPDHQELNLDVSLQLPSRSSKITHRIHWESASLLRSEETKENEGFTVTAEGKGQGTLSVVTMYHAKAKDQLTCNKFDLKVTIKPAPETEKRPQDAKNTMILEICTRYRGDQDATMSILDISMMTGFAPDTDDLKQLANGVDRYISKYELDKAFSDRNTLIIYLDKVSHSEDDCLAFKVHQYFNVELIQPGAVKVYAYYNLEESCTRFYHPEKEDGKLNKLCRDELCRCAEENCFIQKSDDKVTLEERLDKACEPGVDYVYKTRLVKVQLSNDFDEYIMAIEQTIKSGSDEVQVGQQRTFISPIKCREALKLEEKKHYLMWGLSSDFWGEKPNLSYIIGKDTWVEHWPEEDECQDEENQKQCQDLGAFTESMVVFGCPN
Chain of C3bC4b complex (on zymosan, 54,000 C4b/Zym) C3b+C4b (P01024 23-1663, one chain of several): as above
Chain of C3bC4b complex (on zymosan, average) C3b+C4b (P01024 23-1663, one chain of several): as above

Row | Molecule | Kd [1] [nM] | Kd [2] | Kd [3] [nM] | Kd [4] [nM] | Kd [5] [nM] | Kd [6] [nM]
1 | C4BP (from UniProt P04003) | 80 | 5 nM and 2.2 nM |  |  |  | 
2 | B1 |  |  | 2.1 | 0.9 | 0.62 | 0.95
